The labels stand for the following.
B1: Zinc finger protein ZFPM1 (Mus musculus), O35615 (parent)
chain: MSRRKQSNPRQIKRSLRDMEAGEEAKAMDSSPKEQEAPDPEAPAIEEPPSPPREDVSPPAVPAPPESPEDPEDMEGQELEMRPQDEEKEEKEEEAAMASPWSGPEELELALQDGQRCVRARLSLTEGLSWGPFYGSIQTRALSPEREEPGPAVTLMVDESCWLRMLPQVLTEEAANSEIYRKDDALWCRVTKVVPSGGLLYVRLVTEPHGAPRHPVQEPVEPGGLAPVHTDIQLLPQQAGMASILATAVINKDVFPCKDCGIWYRSERNLQAHLLYYCASRQRAGSPVSATEEKPKETYPNERVCPFPQCRKSCPSASSLEIHMRSHSGERPFVCLICLSAFTTKANCERHLKVHTDTLSGVCHNCGFISTTRDILYSHLVTNHMVCQPGSKGEIYSPGAGHPAAKLPPDSLAGFQQHSLMHSPLVPADKAPTPSSGLDSKAEVTNGETRVPPQNGGSSESPAAPRTIKVEAAEEPEATRASGPGEPGPQAPSRTPSPHSPNPVRVKTELSSPTPGSSPGPGELTMAGTLFLPQYVFSPDAGTTTVPTAPQASEILAKMSELVHNRLQQGAGSSGAAGTPTGLFSGTKGATCFECEITFNNINNFYVHKRLYCSGRRAPEDPPTVRRPKAATGPARAPAGAAAEPDPSRSSPGPGPREEEASGTTTPEAEAAGRGSEGSQSPGSSVDDAEDDPSRTLCEACNIRFSRHETYTVHKRYYCASRHDPPPRRPPAPTTAPGPAAPALTAPPVRTRRRRKLYELPAAGAPPPAAGPAPVPVVPSPTAELPSSPRPGSASAGPAPALSPSPVPDGPIDLSKRPRRQSPDAPTALPALADYHECTACRVSFHSLEAYLAHKKYSCPAAPLRTTALCPYCPPNGRVRGDLVEHLRQAHGLQVAKPAASPGAEPRTPAERAPRDSPDGRAPRSPSPAPENTPSDPADQGARTPSKGPPAPAPAPGGGGGHRYCRLCNIRFSSLSTFIAHKKYYCSSHAAEHVK

Variants of B1 are the subject of the test. The settings on record: with tacc3_mouse Tacc3, Q9JJ11.
Chain of tacc3_mouse Tacc3, Q9JJ11 (Q9JJ11 whole entry): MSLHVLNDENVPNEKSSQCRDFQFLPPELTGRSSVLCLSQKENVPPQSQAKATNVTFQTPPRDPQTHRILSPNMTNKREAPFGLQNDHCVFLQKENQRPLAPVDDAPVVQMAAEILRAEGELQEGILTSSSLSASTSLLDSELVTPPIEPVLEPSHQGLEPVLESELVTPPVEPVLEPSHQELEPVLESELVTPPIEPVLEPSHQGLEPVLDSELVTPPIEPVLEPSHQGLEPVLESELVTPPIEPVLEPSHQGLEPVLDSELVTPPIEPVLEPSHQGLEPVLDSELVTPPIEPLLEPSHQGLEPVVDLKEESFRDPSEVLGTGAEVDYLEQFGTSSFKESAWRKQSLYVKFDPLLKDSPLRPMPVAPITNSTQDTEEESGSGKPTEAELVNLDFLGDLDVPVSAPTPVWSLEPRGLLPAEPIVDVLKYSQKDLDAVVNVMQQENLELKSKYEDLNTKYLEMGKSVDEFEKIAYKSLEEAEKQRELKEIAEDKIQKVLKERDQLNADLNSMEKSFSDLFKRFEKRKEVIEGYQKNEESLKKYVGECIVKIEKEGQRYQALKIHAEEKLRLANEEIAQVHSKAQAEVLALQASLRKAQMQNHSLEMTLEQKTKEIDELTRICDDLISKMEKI
With T343A, the “effect of a mutation on the interaction” value is “decreasing interaction”.

Regarding V354A, the “effect of a mutation on the interaction” value was “decreasing interaction”.

In the case of R350A, the “effect of a mutation on the interaction” value was “decreasing interaction”.

On to T344A, for which the “effect of a mutation on the interaction” value is listed as “decreasing interaction”.

Take N347A: the “effect of a mutation on the interaction” value was “decreasing interaction”.

These data come from IntAct's records for PubMed 15234987.
